± gives the uncertainty stated by the source.

B1: POU domain, class 3, transcription factor 3, residues 408 to 463; numbered along this chain, P20264 (parent)
chain: KKRTSIEVSVKGALESHFLKCPKPSAQEITNLADSLQLEKEVVRVWFCNRRQKEKR

In the series the parent is B1. Nature of the series: abundance fitness (aPCA) (normalised: wild type 0, dead -1); higher = more abundant; growth selection in yeast, the domain comes from the species named. The following applies: Homo sapiens.
On to KMRTSIEVSVKGALESHFLKCPKPSAQEITNLADSLQLEKEVVRVWFCNRRQKEKR [K2M], for which the abundance fitness was -0.066 ± 0.12.
The figure for KYRTSIEVSVKGALESHFLKCPKPSAQEITNLADSLQLEKEVVRVWFCNRRQKEKR [K2Y] is -0.391 ± 0.14.
The same measure for KKRTSIEVSVKGALWSHFLKCPKPSAQEITNLADSLQLEKEVVRVWFCNRRQKEKR [E15W]: -0.593 ± 0.23; for KKRTSIEVSVKGALESAFLKCPKPSAQEITNLADSLQLEKEVVRVWFCNRRQKEKR [H17A]: -0.055 ± 0.081.
The figure for KKTTSIEVSVKGALESHFLKCPKPSAQEITNLADSLQLEKEVVRVWFCNRRQKEKR [R3T] is -0.077 ± 0.094; for KKRTSIEVSVKGAVESHFLKCPKPSAQEITNLADSLQLEKEVVRVWFCNRRQKEKR [L14V] it is -0.899 ± 0.1.
As to KKRTSIEVSVKGADESHFLKCPKPSAQEITNLADSLQLEKEVVRVWFCNRRQKEKR [L14D], the abundance fitness was -0.697 ± 0.22.
Consider KKRTSIEVSVKGALESHFLKCPKPSAQEITNLADSLQLEKEVVRVWFCSRRQKEKR [N49S], for which the abundance fitness is -0.098 ± 0.079.
Regarding KKRTSIEVSVKGALESHFLKCPKPSAQEITNLADELQLEKEVVRVWFCNRRQKEKR [S35E], the abundance fitness was -0.032 ± 0.11.
For the variant KKRTSIEVSVKGALESHFLKCPKPSAQEGTNLADSLQLEKEVVRVWFCNRRQKEKR [I29G], the abundance fitness is -0.899 ± 0.099.
On to KKRTSIEVSVKGALESHFLKCPKPSAQETTNLADSLQLEKEVVRVWFCNRRQKEKR [I29T], for which the abundance fitness was -0.849 ± 0.19.
The figure for KKRTSIEVSVKGALESHFLKCPKPSAQEMTNLADSLQLEKEVVRVWFCNRRQKEKR [I29M] is -0.028 ± 0.11; for KKRTSIEVSVKGALESHFLKCPKPSAQEITNLADSLQLEKEVVRVWFCNRRQYEKR [K53Y] it is -0.288 ± 0.18; for KKRTSIEVHVKGALESHFLKCPKPSAQEITNLADSLQLEKEVVRVWFCNRRQKEKR [S9H] it is 0.092 ± 0.37.
The same measure for KKRTSIEVIVKGALESHFLKCPKPSAQEITNLADSLQLEKEVVRVWFCNRRQKEKR [S9I]: -0.368 ± 0.19.
Consider KKRTSIEVVVKGALESHFLKCPKPSAQEITNLADSLQLEKEVVRVWFCNRRQKEKR [S9V], for which the abundance fitness was -0.132 ± 0.092.
The same measure for KKRTSIEVTVKGALESHFLKCPKPSAQEITNLADSLQLEKEVVRVWFCNRRQKEKR [S9T]: -0.051 ± 0.13; for KKRTSIEVSVKGALESHFLPCPKPSAQEITNLADSLQLEKEVVRVWFCNRRQKEKR [K20P]: -0.912 ± 0.17; for KKRTSIEVSVKGALESHFLWCPKPSAQEITNLADSLQLEKEVVRVWFCNRRQKEKR [K20W]: -0.421 ± 0.097.
The figure for KKRTSIEVSVKGALESHFLVCPKPSAQEITNLADSLQLEKEVVRVWFCNRRQKEKR [K20V] is -0.127 ± 0.089; for KKRTSIEVSVKGALESHFLKCPKPSAQEITNLADSLQLCKEVVRVWFCNRRQKEKR [E39C] it is -0.109 ± 0.079.
The figure for KKRTSIEVSVKGALESHFLKCPKPSAQEITNLADSLQLEKEVMRVWFCNRRQKEKR [V43M] is -0.863 ± 0.15; for KKRTSIEVSVKGALESHFLKCPKPSAQEITNLADSLQLEKEVFRVWFCNRRQKEKR [V43F] it is -1.02 ± 0.23.
KKRTSIEVSVKGALESHFLKCPKPSAQEITNLADSLQLEKEVCRVWFCNRRQKEKR [V43C]: the abundance fitness was -0.714 ± 0.13.
The figure for QKRTSIEVSVKGALESHFLKCPKPSAQEITNLADSLQLEKEVVRVWFCNRRQKEKR [K1Q] is -0.271 ± 0.27.
The figure for LKRTSIEVSVKGALESHFLKCPKPSAQEITNLADSLQLEKEVVRVWFCNRRQKEKR [K1L] is -0.756 ± 0.24; for YKRTSIEVSVKGALESHFLKCPKPSAQEITNLADSLQLEKEVVRVWFCNRRQKEKR [K1Y] it is -0.258 ± 0.23; for KKRTSIEVSVKGALESHFLKCPKPSAQEITNLADSLQPEKEVVRVWFCNRRQKEKR [L38P] it is -0.951 ± 0.17.
The figure for KKRTSIEVSVKGALESHFLKCPKPSAQEITNLADSLQLEKEVVRVWMCNRRQKEKR [F47M] is -0.144 ± 0.34; for KKRTSIEVSVKGALESHFLKCPKPSAQEITNLADSLQLEKEVVRVWLCNRRQKEKR [F47L] it is -0.461 ± 0.28; for KKRTSIEVSVKGALESHFLKCPKPSAQEITNLADSLQLEKEVVRVWFCNRRQKEGR [K55G] it is 0.053 ± 0.074.
Consider KKRTSIEVSVKGALESHFLKCPKPSAQEITNLADSLQLEKEVVRVWFCNRRQKEMR [K55M], for which the abundance fitness was -0.096 ± 0.1.
The figure for KKRTSIEVSVKGALESHFLKCPKPSAQEITNLADSLQLEKEVVRVWFCNRRQKELR [K55L] is -0.006 ± 0.087; for KKRTSIEVSVGGALESHFLKCPKPSAQEITNLADSLQLEKEVVRVWFCNRRQKEKR [K11G] it is -0.135 ± 0.067; for KKRTSIEVSVQGALESHFLKCPKPSAQEITNLADSLQLEKEVVRVWFCNRRQKEKR [K11Q] it is -0.015 ± 0.12.
The same measure for KKRTSDEVSVKGALESHFLKCPKPSAQEITNLADSLQLEKEVVRVWFCNRRQKEKR [I6D]: -0.135 ± 0.12.
The figure for KKRTSVEVSVKGALESHFLKCPKPSAQEITNLADSLQLEKEVVRVWFCNRRQKEKR [I6V] is -0.093 ± 0.082; for KKRTSIEVSVKGALESHFLKCPKPSAQEITNLADSLQLEKEVVRVWFVNRRQKEKR [C48V] it is 0.068 ± 0.099; for KKRTSIEVSVKGALESHFLKCPKPSAQEITNLADSLQLEKEVVRVWFTNRRQKEKR [C48T] it is 0.032 ± 0.1.
On to KKRTSIEVSVKGALESHFLKCPKPSAQGITNLADSLQLEKEVVRVWFCNRRQKEKR [E28G], for which the abundance fitness is -0.237 ± 0.067.
The figure for KKRTSIEVSVKGALESHFLKCPKPSAQPITNLADSLQLEKEVVRVWFCNRRQKEKR [E28P] is -0.838 ± 0.13; for KKRTSIEVSVKGALESHFLKCPKPSAQEITNLADSLQLEKEVVRVWFCNRRQKNKR [E54N] it is -0.474 ± 0.2.

The values are drawn from the Human Domainome abundance scans (Beltran et al. 2025).
